The experiment concerns the target human SR-BI with 12 vector-derived amino acids added to the carboxyl terminal (pcDNA3-SR-BI construct of Example 3) (human) (UniProt Q8WTV0). Description: FACS dot plot, BHK-21 cells transiently transfected with pcDNA3-SR-BI.

The source of these data is US20050019751A1.

Chain of UniProt Q8WTV0 (Q8WTV0 other isoform, or with tags, fused parts or gaps limits assumed): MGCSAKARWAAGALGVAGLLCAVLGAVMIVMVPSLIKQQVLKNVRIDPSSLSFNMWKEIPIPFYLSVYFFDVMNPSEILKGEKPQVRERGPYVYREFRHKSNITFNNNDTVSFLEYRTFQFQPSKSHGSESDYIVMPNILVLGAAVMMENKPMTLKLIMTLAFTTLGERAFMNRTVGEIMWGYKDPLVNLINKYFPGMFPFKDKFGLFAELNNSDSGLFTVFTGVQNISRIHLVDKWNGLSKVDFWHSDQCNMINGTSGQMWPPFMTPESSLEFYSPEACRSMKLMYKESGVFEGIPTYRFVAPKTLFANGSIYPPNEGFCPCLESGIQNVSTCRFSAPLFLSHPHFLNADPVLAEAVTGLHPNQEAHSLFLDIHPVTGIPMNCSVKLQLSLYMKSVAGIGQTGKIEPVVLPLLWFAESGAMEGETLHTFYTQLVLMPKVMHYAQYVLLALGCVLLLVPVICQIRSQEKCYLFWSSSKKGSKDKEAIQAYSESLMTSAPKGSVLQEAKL

“HCV E2 recombinant protein, genotype 1a (strain H), amino acids 384-661 of the HCV polyprotein with C-terminal 6 His tag (from UniProt P27958 384-661) (ligand)” came in with a percent of transfected cells that bind E2 of 10%.
